Test results from the Human Domainome abundance scans (Beltran et al. 2025).
± gives the uncertainty stated by the source.

B1: Nucleosome-remodeling factor subunit BPTF, residues 2862 to 2918; numbered along this chain, Q12830 (parent)
chain: TKKDTKLYCICKTPYDESKFYIGCDRCQNWYHGRCVGILQSEAELIDEYVCPQCQST

Variants of: B1
Test: abundance fitness (aPCA) (normalised: wild type 0, dead -1); higher = more abundant; growth selection in yeast, the domain comes from the species named
Conditions: Homo sapiens

Abundance fitness: each site, then its substitutions
H32: T -1.1 ± 0.13, A -0.832 ± 0.12, R -0.808 ± 0.11, L -1.02 ± 0.085, G -0.831 ± 0.12, Y -1 ± 0.17, N -0.879 ± 0.17, K -0.979 ± 0.15, W -1.1 ± 0.24, F -0.891 ± 0.11, P -0.95 ± 0.14, D -0.9 ± 0.16, M -0.944 ± 0.13, Q -0.898 ± 0.13, I -1 ± 0.15, E -0.929 ± 0.17, S -0.797 ± 0.094
G33: D -0.229 ± 0.098, W -0.445 ± 0.097, Y 0.053 ± 0.12, K -0.271 ± 0.15, P 0.053 ± 0.075, V -0.098 ± 0.064, S -0.2 ± 0.071, I 0.011 ± 0.14, N -0.357 ± 0.2, T -0.238 ± 0.13, Q 0 ± 0.093, A -0.007 ± 0.064, M -0.446 ± 0.12, C 0.196 ± 0.12, F -0.192 ± 0.082
C35: G -0.958 ± 0.12, Q -0.804 ± 0.11, K -0.915 ± 0.13, A -0.827 ± 0.12, S -0.75 ± 0.076, H -0.764 ± 0.12, V -1.06 ± 0.15, L -0.81 ± 0.083, P -0.74 ± 0.14, W -0.981 ± 0.12, M -0.827 ± 0.13, F -0.92 ± 0.12, Y -0.878 ± 0.12, T -0.933 ± 0.12, D -0.931 ± 0.17, E -0.834 ± 0.16, R -1.01 ± 0.085, N -1.07 ± 0.18
Y31: V -0.341 ± 0.066, T -0.723 ± 0.095, W -0.527 ± 0.09, F 0.01 ± 0.081, R -0.79 ± 0.082, G -0.804 ± 0.079, E -0.772 ± 0.11, P -0.787 ± 0.1, H -0.592 ± 0.13, L -0.279 ± 0.064, Q -0.706 ± 0.11, D -1.01 ± 0.17, C -0.206 ± 0.094, S -0.693 ± 0.076, K -0.649 ± 0.11, N -0.573 ± 0.11, M -0.412 ± 0.088
Q40: Y -0.306 ± 0.17, A -0.072 ± 0.093, V -0.19 ± 0.11, L -0.282 ± 0.1, S -0.049 ± 0.078, D -0.126 ± 0.25, N -0.296 ± 0.17, E -0.036 ± 0.093, H 0.002 ± 0.17, G -0.062 ± 0.093, K -0.214 ± 0.13, T -0.127 ± 0.14, I -0.378 ± 0.17, F -0.201 ± 0.2, M -0.244 ± 0.14, P -0.2 ± 0.11, W -0.371 ± 0.12, C -0.12 ± 0.18
L45: P -0.309 ± 0.086, V -0.001 ± 0.08, R 0.04 ± 0.07, I -0.128 ± 0.096, G -0.053 ± 0.076, D -0.04 ± 0.11, Y -0.179 ± 0.1, N -0.017 ± 0.1, A -0.111 ± 0.081, K -0.018 ± 0.11, S -0.075 ± 0.077, H 0.101 ± 0.11, M -0.219 ± 0.11, W -0.185 ± 0.1, T -0.03 ± 0.099
A43: Y -0.074 ± 0.18, K -0.025 ± 0.12, R -0.076 ± 0.081, W -0.182 ± 0.14, S -0.119 ± 0.084, D -0.392 ± 0.11, H 0.013 ± 0.16, I 0.016 ± 0.12, L -0.144 ± 0.099, N -0.251 ± 0.13, V -0.036 ± 0.096, P -0.167 ± 0.11, G -0.028 ± 0.12, F -0.17 ± 0.16, M -0.13 ± 0.092, E -0.226 ± 0.18, T -0.148 ± 0.097, Q 0 ± 0.1
R34: N 0.075 ± 0.079, M -0.251 ± 0.11, E 0.005 ± 0.14, P -0.144 ± 0.075, W -0.363 ± 0.12, S 0.051 ± 0.065, I -0.164 ± 0.075, A 0.026 ± 0.084, T -0.065 ± 0.078, H 0.035 ± 0.073, K 0.109 ± 0.1, F -0.258 ± 0.085, D 0.105 ± 0.1, Q 0.01 ± 0.097, Y -0.107 ± 0.071
V36: K -0.531 ± 0.16, F -0.832 ± 0.14, Q -0.862 ± 0.21, S -0.669 ± 0.092, P -0.983 ± 0.13, I -0.109 ± 0.094, G -0.863 ± 0.12, M -0.381 ± 0.12, C -0.572 ± 0.14, D -0.801 ± 0.14, N -0.393 ± 0.13, A -0.565 ± 0.098, Y -0.957 ± 0.17, L -0.123 ± 0.074, H -0.785 ± 0.18, W -0.927 ± 0.22
L39: E 0.225 ± 0.48, A -0.306 ± 0.39, T -0.08 ± 0.39, P 0.102 ± 0.28, F -0.006 ± 0.33, W -0.326 ± 0.45, G -0.116 ± 0.31, S -0.024 ± 0.36, V -0.286 ± 0.26, R -0.033 ± 0.34, D -0.062 ± 0.39
E48: C -0.009 ± 0.099, A -0.008 ± 0.095
Q28: F -0.221 ± 0.1, N -0.133 ± 0.12, P -0.193 ± 0.088, G -0.028 ± 0.094, M -0.096 ± 0.082, A -0.14 ± 0.094, R -0.081 ± 0.073, I -0.342 ± 0.11, H 0.009 ± 0.11, S 0.048 ± 0.068, E -0.072 ± 0.15, W -0.236 ± 0.11, D -0.079 ± 0.12, K 0.084 ± 0.1, C 0.126 ± 0.12, T -0.081 ± 0.081
I38: H -0.342 ± 0.13, T -0.146 ± 0.11, C -0.582 ± 0.098, E -0.44 ± 0.16, F -0.182 ± 0.1, R -0.234 ± 0.075, P -0.428 ± 0.095, N -0.547 ± 0.11, L -0.014 ± 0.072, A -0.452 ± 0.1, Y -0.059 ± 0.11, K -0.278 ± 0.13, W -0.46 ± 0.12, M -0.084 ± 0.13, D -0.432 ± 0.1, G -0.489 ± 0.095
W30: T 0.095 ± 0.099, R 0.142 ± 0.076, D -0.097 ± 0.14, S -0.009 ± 0.081, G -0.116 ± 0.09, P -0.155 ± 0.099, F 0.115 ± 0.13, I -0.033 ± 0.1, H 0.004 ± 0.1, A 0.09 ± 0.078, K 0.163 ± 0.1, Y 0.083 ± 0.12, M 0.037 ± 0.1, L 0.127 ± 0.075, C -0.123 ± 0.14, N -0.159 ± 0.1
E42: F -0.274 ± 0.18, G -0.294 ± 0.13, K -0.083 ± 0.11, R -0.403 ± 0.12, Y -0.304 ± 0.21, P -0.342 ± 0.097, N -0.279 ± 0.17, M -0.288 ± 0.15, D -0.003 ± 0.2, Q -0.021 ± 0.1, V -0.269 ± 0.12, C -0.129 ± 0.23, A -0.099 ± 0.091, L -0.468 ± 0.11, T -0.37 ± 0.11, W -0.539 ± 0.18, S -0.205 ± 0.094
C27: T -0.871 ± 0.1, S -0.811 ± 0.091, V -0.803 ± 0.13, Y -0.844 ± 0.15, W -0.907 ± 0.097
N29: H -0.062 ± 0.11, T -0.191 ± 0.09, E -0.328 ± 0.29, I -0.431 ± 0.11, A 0.06 ± 0.2, M -0.1 ± 0.21, R -0.061 ± 0.071, S -0.047 ± 0.074, G -0.068 ± 0.12, Y -0.376 ± 0.11, K -0.124 ± 0.12, C -0.353 ± 0.096, L -0.198 ± 0.099, V -0.064 ± 0.13, F -0.307 ± 0.11, Q 0.089 ± 0.15
E44: N -0.116 ± 0.1, F -0.089 ± 0.17, P -0.097 ± 0.094, T -0.165 ± 0.088, M -0.089 ± 0.093, S -0.048 ± 0.077, R -0.045 ± 0.083, V -0.123 ± 0.1, L -0.11 ± 0.077, C -0.137 ± 0.1, D 0.027 ± 0.13, Q -0.086 ± 0.1, A -0.001 ± 0.1, K -0.018 ± 0.093, I -0.193 ± 0.12, W -0.408 ± 0.11
D47: W -0.326 ± 0.12, M -0.14 ± 0.14, H 0.134 ± 0.14, E 0.101 ± 0.099, N -0.03 ± 0.087, S -0.053 ± 0.067, L -0.058 ± 0.072, I -0.227 ± 0.18, G 0.054 ± 0.068, P -0.107 ± 0.12, K 0.089 ± 0.093, A 0.003 ± 0.073, Q 0.077 ± 0.1, T -0.051 ± 0.092, V -0.138 ± 0.088, F -0.219 ± 0.13, R -0.044 ± 0.071, C -0.043 ± 0.15
G37: K -0.009 ± 0.1, I -0.882 ± 0.16, S -0.074 ± 0.07, H -0.157 ± 0.13, Q -0.216 ± 0.15, C -0.379 ± 0.092, L -0.411 ± 0.08, F -0.418 ± 0.11, P -0.99 ± 0.15, R -0.207 ± 0.073, A -0.277 ± 0.082, E -0.23 ± 0.1, N -0.158 ± 0.18, W -0.681 ± 0.13, M -0.359 ± 0.12, Y -0.418 ± 0.12
S41: C -0.213 ± 0.13, G -0.105 ± 0.074, Q -0.07 ± 0.13, I -0.507 ± 0.14, R 0.019 ± 0.071, H -0.152 ± 0.13, E 0.017 ± 0.13, W -0.207 ± 0.11, M -0.137 ± 0.17, D -0.071 ± 0.16, P -0.106 ± 0.12, F -0.173 ± 0.12, T 0.069 ± 0.1, L -0.198 ± 0.086, A -0.146 ± 0.1, K -0.015 ± 0.15, Y -0.132 ± 0.12, N 0.038 ± 0.11
I46: G -0.254 ± 0.1, N -0.098 ± 0.14, P -0.03 ± 0.077, C -0.483 ± 0.15, H -0.11 ± 0.17, F -0.163 ± 0.098, E -0.228 ± 0.13, M -0.037 ± 0.1, S -0.095 ± 0.074, L -0.027 ± 0.07, R -0.045 ± 0.072, A -0.176 ± 0.094, V -0.073 ± 0.091, W -0.154 ± 0.095, D -0.365 ± 0.15, T 0 ± 0.084, Q -0.058 ± 0.095, Y -0.282 ± 0.12
